Consider two molecules from patent CN112592405A (BIOSION BIO TECH NANJING CO LTD, dated 2021).

In the experiment the target is T1, 人BCMA-His抗原 (ACRO, Cat#BCA-H522y) (human, UniProt Q02223 1-54).
T1 construct: Bought recombinant protein; also called human BCMA-His; 人BCMA蛋白; not shown: His tag
T1 sequence (looked up): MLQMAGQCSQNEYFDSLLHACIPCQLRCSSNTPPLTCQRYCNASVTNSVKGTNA
Kind of experiment: indirect ELISA, plate coated with human BCMA-His at 2 μg/ml, detection with HRP goat anti-human Fcγ. In general terms: In an ELISA, binding on a coated surface is turned into a signal by an enzyme label.

B1: BCMA Benchmark1 (antibody sequence of GSK2857916) (antibody, human IgG1, kappa, V domains shown)
VH: QVQLVQSGAEVKKPGSSVKVSCKASGGTFSNYWMHWVRQAPGQGLEWMGATYRGHSDTYYNQKFKGRVTITADKSTSTAYMELSSLRSEDTAVYYCARGAIYDGYDVLDNWGQGTLVTVSS
VL: DIQMTQSPSSLSASVGDRVTITCSASQDISNYLNWYQQKPGKAPKLLIYYTSNLHSGVPSRFSGSGSGTDFTLTISSLQPEDFATYYCQQYRKLPWTFGQGTKLEIKR
notes: also called BCMA-BM1
Take B1: the binding result is listed as “binds”.

B2: BCMA-VHH-2B11纳米抗体 (抗人BCMA纳米抗体, 含有Fc tag) (Fc fusion)
chain: QVQLVESGGGLVQAGGSLRLSCAASGGTFNNDNVGWFRQAPGKEREFVAVISWRGDGTDYADSVKGRFTISRDYAKKMVYLQMNSLQPKDTAVYYCAVGDGSRWRGAYAYWGQGTRVTVSS
notes: Expressed in Expi293F cells and purified on Protein A/G. It was tested as VHH with an Fc tag, about 35 kDa on SDS-PAGE; also called anti-human BCMA nanobody; not shown: Fc tag
Turning to B2, the binding result is on record as “binds”.
